According to doi:10.1101/402990 (bioRxiv, 2018):

Biological target: T1, 6His-Tea3 (S. pombe, UniProt O14248 1-1125)
T1 sequence (looked up): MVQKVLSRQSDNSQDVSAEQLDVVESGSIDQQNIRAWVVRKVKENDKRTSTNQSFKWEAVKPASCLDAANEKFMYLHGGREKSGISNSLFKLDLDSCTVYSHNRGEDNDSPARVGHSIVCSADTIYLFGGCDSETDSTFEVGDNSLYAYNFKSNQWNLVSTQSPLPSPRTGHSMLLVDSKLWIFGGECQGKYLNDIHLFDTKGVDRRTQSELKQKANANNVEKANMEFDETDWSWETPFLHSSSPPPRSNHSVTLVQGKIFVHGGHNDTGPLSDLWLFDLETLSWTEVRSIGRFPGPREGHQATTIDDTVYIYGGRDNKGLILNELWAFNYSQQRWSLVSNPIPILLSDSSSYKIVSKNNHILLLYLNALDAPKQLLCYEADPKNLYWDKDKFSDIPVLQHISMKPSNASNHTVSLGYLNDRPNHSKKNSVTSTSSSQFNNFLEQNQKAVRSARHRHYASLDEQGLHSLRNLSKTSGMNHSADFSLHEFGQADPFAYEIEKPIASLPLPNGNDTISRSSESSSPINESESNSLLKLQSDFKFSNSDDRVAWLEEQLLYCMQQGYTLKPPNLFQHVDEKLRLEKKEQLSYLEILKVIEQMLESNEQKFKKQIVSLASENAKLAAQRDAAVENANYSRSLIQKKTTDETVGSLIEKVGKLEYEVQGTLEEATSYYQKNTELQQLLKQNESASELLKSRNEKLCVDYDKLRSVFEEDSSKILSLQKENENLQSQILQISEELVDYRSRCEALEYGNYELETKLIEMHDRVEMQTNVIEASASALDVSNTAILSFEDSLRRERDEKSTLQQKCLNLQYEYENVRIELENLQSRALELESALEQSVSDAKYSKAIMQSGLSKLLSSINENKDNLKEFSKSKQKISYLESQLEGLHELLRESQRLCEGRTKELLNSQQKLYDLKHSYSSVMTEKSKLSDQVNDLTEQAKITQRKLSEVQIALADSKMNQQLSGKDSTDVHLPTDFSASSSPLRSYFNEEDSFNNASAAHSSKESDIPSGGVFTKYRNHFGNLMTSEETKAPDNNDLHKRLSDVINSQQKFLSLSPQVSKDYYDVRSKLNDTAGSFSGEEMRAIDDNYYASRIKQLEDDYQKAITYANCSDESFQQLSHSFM
Assay: pull-down

B1: GST-Shk1 (enzyme, S. pombe, UniProt P50527 1-658, looked up)
chain: MERGTLQPRKKAPNGYGITPIVAHKTGEPVRYEVEDDLRKLKPSRTAPKPPAINTNLAEDTFSGFPLSQSRTTVSRVSLGSRQHSSSSIRKLQTNVSDVRSYDERNQKKSAFENFVSSMSSFLTGGGSSPTSSYGSGSASPRKSTVISSPFDPKHVTHVGFNYDTGEFTGMPTEWQALLKVSGITKSEQVQHPQAVLDAMAFYSQSKKYLEEGAKPPFPRESTEKPLLSVSALSSSSHLQPTSATSSSSRLYPSRPAPTPPASSSSSPLLSSQTVKTTTSNASRQPSPLVSSKSTDNIIRSHSPVLLTPQTLSTSETKHIRPNNSTPYQRRAETSTKPKAVATPQKVEAPSAPRLQKRAPRQQSNDSAVLAKLQSICNPKNPTLLYRNFVKIGQGASGDVYSARQVGTNLSVAIKKMNINQQPKKEFIVNEILVMKSHHHKNIVNFIDTFFYKSELWMVMEYMRGGSLTEVVTNNTLSEGQIAAICKETLEGLQHLHENGIVHRDIKSDNILLSLQGDIKLTDFGFCAQIDSNMTKRTTMVGTPYWMAPEVVTRKEYGFKVDVWSLGIMAIEMVEGEPPYLNENPLRALYLIATIGTPKISRPELLSSVFHDFLSKSLTVNPKQRPSSGELLRHPFLKQAVPVSSLIPLIKSIHHSGK
B1: binds.
